Measurements reported in patent US20250093368A1 (BEIJING INSTITUTE OF HEART LUNG AND BLOOD VESSEL DISEASES, published 2025).
Positions count from the first letter of the chain named. In names and notes the source's numbering stands.

T1: S100A8 protein in patient sera (human, UniProt P05109 1-93)
T1 construct: Native serum protein; also called S100A8 signal in patient serum
T1 sequence (looked up): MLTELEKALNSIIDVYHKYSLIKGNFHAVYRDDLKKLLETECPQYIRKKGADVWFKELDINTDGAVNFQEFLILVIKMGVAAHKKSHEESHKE

T2: commercial S100A8/S100A9 Heterodimer (R&D) heterodimer protein (UniProt P05109 1-93; P06702 2-114, limits assumed)
T2 construct: Bought, purity >95%; also called S100A8/S100A9 heterodimer protein standard; commercial S100A8/S100A9 protein
T2 sequence (looked up) 1: T1 sequence (looked up)
T2 sequence (looked up) 2: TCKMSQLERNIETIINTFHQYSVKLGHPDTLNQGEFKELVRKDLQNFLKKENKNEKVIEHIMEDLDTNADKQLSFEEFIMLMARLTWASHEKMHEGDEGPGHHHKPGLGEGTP

T3: S100A8 recombinant protein (pET-28a-S100A8 (1-93 aa) expressed protein) (human, UniProt P05109 1-93)
T3 construct: Immunogen and ELISA screening antigen, expressed from pET-28a; also called S100A8 antigen; expressed S100A8 antigen
T3 sequence: T1 sequence (looked up)

T4: commercial S100A8 protein (ab167749, Recombinant human MRP8 protein) (human, UniProt P05109 1-93)
T4 construct: Bought; also called commercial S100A8 antigen
T4 sequence (looked up): T1 sequence (looked up)

T5: S100A8/S100A9-1 recombinant protein (expression product from plasmid 5) (human, UniProt P05109 2-93; P06702 1-114)
T5 construct: also called S100A8/S100A9-1 heterodimer; S100A8/S100A9-1 (S100A9 mutant) heterodimer; not shown: T7-tag
T5 chain 1: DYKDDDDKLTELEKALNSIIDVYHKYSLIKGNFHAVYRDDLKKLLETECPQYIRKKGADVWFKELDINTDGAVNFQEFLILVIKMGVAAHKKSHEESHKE
T5 chain 2: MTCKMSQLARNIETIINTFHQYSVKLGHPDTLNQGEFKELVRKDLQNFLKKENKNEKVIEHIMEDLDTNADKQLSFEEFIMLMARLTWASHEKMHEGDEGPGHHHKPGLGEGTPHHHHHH

T6: S100A9 protein in patient sera (human, UniProt P06702 2-114, limits assumed)
T6 construct: Native serum protein; also called S100A9 signal in patient serum
T6 sequence (looked up): T2 sequence (looked up) 2

T7: commercial S100A9 protein (ab95909, Recombinant Human S100A9 protein) (human, UniProt P06702 1-114)
T7 construct: Bought; also called commercial A9 protein
T7 sequence (looked up): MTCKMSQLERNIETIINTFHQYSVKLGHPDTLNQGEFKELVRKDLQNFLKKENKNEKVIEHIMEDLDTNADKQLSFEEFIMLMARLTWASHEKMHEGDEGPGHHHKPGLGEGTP

T8: S100A9 recombinant protein (pET-28a-S100A9 (1-114 aa) expressed protein) (human, UniProt P06702 1-114)
T8 construct: Immunogen and ELISA screening antigen, expressed from pET-28a; also called S100A9 antigen; expressed S100A9 antigen
T8 sequence: T7 sequence (looked up)

B1: 2C2 (antibody, V domains shown)
VH: QSVEESGGRLVTPGGSLTLTCTVSGFSLSSYFMIWVRQAPGKGLEYIGIHSDTGSTDYASWAKGRFTISKTSTTVDLKMTSLTASDTATYFCARDGGNDAYYYFNIWGPGTLVTVSS
VL: AYDMTQTPASVEVAVGGTVTINCQASQSISTALAWYQQKPGQPPKPLIYEASKLASGVPSRFKGSGSGTEFILTISDLECADAATYYCQQGASARNIASNVFGGGTEVVVKG
notes: Rabbit monoclonal IgG against S100A8 (rabbit E15229); Biotin-labeled when used as detecting antibody
B2: S100A9 - 6 x His tag (expression product from plasmid 2) (other)
chain: T5 chain 2 with A9E
notes: pET-28a, BamHI/HindIII
B3: T7-tag - S100A9-1 - 6 x His tag (S100A9-1 chain co-expressed from plasmid 4 and plasmid 5) (other)
chain: T5 chain 2
notes: Single chain of the co-expression constructs, written as a molecule of its own for the dimer formation results; also called mutant S100A9; not shown: T7-tag
B4: S100A9-1 (E9A) - 6 x His tag (expression product from mutant plasmid 2) (other)
chain: T5 chain 2
notes: pET-28a, BamHI/HindIII; also called mutant S100A9
B5: 3D8 (antibody, V domains shown)
VH: QSVEESGGRLVTPGTPLTLTCTVSGIDLSTNPMGWVRQAPGKGLEWIGIIFADTGEIYYATWAKGRFTISETSSTTVDLKITSPTAEDTATYFCVRGSPSSANIWGPGTLVTVSS
VL: AAVLTQTPSPVSAAVGGTVTISCQSSQSVYNNNWLGWYQQKPGQPPKLLIYRASTLASGVPSRFKGSGSGTQFTFTISDLECDDAATYYCAGTYRRNSDNGFGGGTEVVVKG
notes: as for B1
B6: 5H10 (antibody, V domains shown)
VH: B5 VH with K64R
VL: B5 VL with P61S, F75L, D79G
notes: Rabbit monoclonal IgG against S100A8 (rabbit E15229); Tested as B cell supernatant, LEM supernatant and purified recombinant antibody; biotin-labeled when used as detecting antibody; also called anti-S100A8 monoclonal antibody 5H10
B7: Flag tag - S100A8 (expression product from plasmid 1; also the S100A8 chain co-expressed from plasmid 5) (other)
chain: T5 chain 1
B8: 7C4 (antibody, V domains shown)
VH: QSVEESGGRLVTPGTPLTLTCTVSGIDLSSGWMNWVRQAPGGGLEWIGTINSGGSPYYARWAKGRFTLSTTSTTVDLKITSPTTEDTATYFCGSRDFWGPGTLVTVSS
VL: AQVLTQTASPVSAAVGGTVTINCQASQSVYNNNYLAWYQQKPGQPPKRLIYAASNLASGVSSRFKGSGSGTQFTLTISDLQCDDAATYYCSGGYDCDSADCSVFGGGTEVVVKG
notes: Rabbit monoclonal IgG against S100A9 (rabbit E16675); also called 7C4-HRP; 7C4 (biotin-labeled)
B9: 8A11 (antibody, V domains shown)
VH: B8 VH with G42K, T49V, G53Y, S55R, P56T, L68I, T70I
VL: B8 VL with G17S, N31K, A52S, N55T, L80V, S91G
notes: Rabbit monoclonal IgG against S100A9 (rabbit E16675); Biotin-labeled when used as detecting antibody; also called 8A11 (biotin-labeled)

Assays:
[1] = molecular target: T1, S100A8 protein in patient sera; experiment: Dot Blot, B cell supernatant on patient sera
[2] = molecular target: T2, commercial S100A8/S100A9 Heterodimer …; experiment: ELISA, LEM supernatant, heterodimer coated at 1 µg/mL
Text: The ELISA reaction conditions were as follows: [0196]

[3] = molecular target: T3, S100A8 recombinant protein …; experiment: ELISA, B cell supernatant on expressed S100A8 antigen; positive = OD greater than 0.7
[4] = molecular target: T4, commercial S100A8 protein (ab167749, …); experiment: ELISA, B cell supernatant on commercial S100A8 protein ab167749; positive = OD greater than 0.7
[5] = molecular target: the molecule itself; experiment: SDS-PAGE of His-purified protein, homodimer band at 34 KDa
Text: (§1) (8) SDS-PAGE gel electrophoresis: the supernatant obtained after lysis and the purified protein were mixed with 6×Loading Buffer according to a volume ratio of 5:1 for sample preparation; and the prepared sample was subjected to SDS-PAGE gel electrophoresis together with bovine serum albumin (BSA, purchased from BioFroxx, Cat. No. 4240GR025) and Marker, wherein plasmid 1 and mutant plasmid 1 were the final samples purified by Flag-Tag, plasmid 2 and mutant plasmid 2 were the final samples purified by His-Tag, and plasmid 3 and plasmid 4 were the final samples purified by His-Tag and Flag-Tag. […] In panel C, the “Supernatant” refers to the supernatant obtained after centrifugation during first lysis, and the “Supernatant 2” refers to the supernatant obtained by performing second lysis treatment on the precipitate obtained after first lysis and centrifugation and then performing centrifugation.

[6] = molecular target: B7; experiment: co-expression, purification by His-Tag then Flag-Tag, SDS-PAGE
[7] = molecular target: the molecule itself; experiment: SDS-PAGE of protein purified by His-Tag and Flag-Tag
Text: as §1
Except for the synthesized gene of interest (gene of interest S100A8+S100A9-1 in plasmid 5), the construction and expression and purification method for plasmid 5 was the same as that for plasmids 3 and 4, which was not described in detail herein.

[8] = molecular target: the molecule itself; experiment: SDS-PAGE of His-purified protein
Text: as §1

[9] = molecular target: T5, S100A8/S100A9-1 recombinant protein …; experiment: sandwich ELISA, 5H10 coated at 0.5 µg/mL, 7C4-HRP detecting
Description: (1) Experimental steps: [0270] standard: commercial R&D S100A8/S100A9 heterodimer protein, 2-fold gradient dilution from 40 ng/mL, with a total of 8 concentrations, lower limit of 0.625 ng, and boundary value of 40-0.625; [0271] reaction system: 96-well plate reaction system, laboratory buffer; [0272] coating antibody concentration: 5H10 (anti-S100A8 antibody), 0.5 μg/mL; [0273] detecting antibody concentration: 7C4-HRP (directly labeled), antibody dilution ratio of 1:20000 or 1:10000; [0274] TMB development: dilution ratio being 1:2, and color development time being 15 min.

[10] = molecular target: the molecule itself; experiment: SDS-PAGE of Flag-purified protein, homodimer band at 30 KDa
Text: as §1

[11] = molecular target: T6, S100A9 protein in patient sera; experiment: Dot Blot, B cell supernatant on patient sera
[12] = molecular target: T7, commercial S100A9 protein (ab95909, …); experiment: ELISA, LEM supernatant, antigen coated at 1 µg/mL
Text: (§2) The ELISA reaction conditions were as follows: [0207]

[13] = molecular target: T8, S100A9 recombinant protein …; experiment: ELISA, LEM supernatant, antigen coated at 1 µg/mL
Text: as §2

Measured: binding result

B1
binds: [1] | [2] | [3] | [4]

B2
binds: [5]

B3
binds: [6] | [7]

B4
binds: [8]

B5
binds: [1] | [2] | [3] | [4]

B6
binds: [1] | [2] | [3] | [9] | [4]

B7
binds: [10]

B8
binds: [11] | [2] | [9] | [12] | [13]

B9
binds: [11] | [2] | [12] | [13]
